The target of assay [1] is T1, FcγRI (CD64) on IFNγ-activated U937 cells (UniProt P12314 16-374, limits assumed).
T1 construct: whole, on cells; also called FcRγI
As to the kind of experiment: FcγRI bridging assay, FIG. 13 upper panel. How it is done:
(§1) Briefly, the FcγR bridging assay was performed by coating 96 well Maxisorb ELISA plates (Nalge-Nunc Rochester, N.Y., USA) with recombinant soluble human CD154 ligand (i.e., at a concentration of 1 μg/ml overnight at 4° C. in PBS; Karpusas, Hsu et al. 1995). Titrations of glycosylated or aglycosylated forms of anti-CD154 antibody (hu5c8) were then bound to CD154 for 30 minutes at 37° C., the plates were then washed, and the binding of fluorescently labeled U937 (CD64⁺) cells was measured. The U937 cells were grown in RPMI medium with 10% FBS, 10 mM HEPES, L-glutamine, and penicillin/streptomycin, split 1:2, and activated for one day prior to the assay with 1000 units/ml of IFNγ to increase Fc receptor (FcγRI) expression.
(§2) In the assays for both receptors, the Fc receptor-bearing cells were labeled with 2′,7′-bis-(2-carboxyethyl)-5-(and-6)-carboxyfluorescein acetoxymethyl ester (BCECF-AM) (Molecular Probes Eugene, Oreg., USA) for 20 minutes at 37° C. After washing to remove excess label, 1×10⁵ of the labeled cells were incubated in the assay for 30 minutes at 37° C. Unbound FcγR positive cells were removed by washing several times and plates were read on a microplate reader (Cytofluor 2350 Fluorescent Microplate Reader, Millipore Corporation Bedford, Mass., USA) at an excitation wavelength of 485 nm and an emission wavelength of 530 nm.

The target of assay [2] is T2, human C1q (Sigma C0660) (human, UniProt P02745 23-245; P02746 28-253; P02747 29-245).
T2 construct: The three subunits come from general knowledge of C1q; also called complement protein C1q
The experiment in a line: C1q bridging ELISA: antibody captured on plate-coated soluble human CD154, human C1q detected with sheep anti-C1q. On the procedure: (§3) The C1q binding assay was performed by coating 96 well Maxisorb ELISA plates (Nalge-Nunc Rochester, N.Y., USA) with 50 μl recombinant soluble human CD154 ligand (Karpusas et al. Structure, 15;3(12):1426 (1995) at 10 μg/ml overnight at 4° C. in PBS. The wells were aspirated and washed three times with wash buffer (PBS, 0.05% Tween 20) and blocked for ≧1 h with 200 μl/well of block/diluent buffer (0.1 M Na₂HPO₄, pH 7, 0.1 M NaCl, 0.05% Tween 20, 0.1% gelatin). The antibody to be tested was diluted in block/diluent buffer starting at 15 μg/ml with 3-fold dilutions. 50 μl were added per well, and the plates incubated for 2 h at room temperature. After aspirating and washing as above, 50 μl/well of 2 μg/ml of Sigma human C1q (C0660) diluted in block/diluent buffer was added and incubated for 1.5 h at room temperature. After aspirating and washing as above, 50 μl/well of sheep anti C1q (Serotec AHP033), diluted 3,560-fold in block/diluent buffer, was added. After incubation for 1 h at room temperature, the wells were aspirated and washed as above. […] The absorbance was read at 450 nm with a Softmax PRO instrument, and Softmax software was used to determine the relative binding affinity (C value) with a 4-parameter fit.
A general note: In an ELISA, binding on a coated surface is turned into a signal by an enzyme label.

The target in assay [3] is T2, human C1q (Sigma C0660). The experiment in a line: C1q bridging ELISA: antibody captured on plate-coated soluble human CD154, human C1q 2 µg/ml detected with sheep anti-C1q. On the procedure:
as §3

For assay [4], the target named is T1, FcγRI (CD64) on IFNγ-activated U937 …. As to the kind of experiment: FcγRI bridging assay: antibody captured on plate-coated soluble human CD154, binding of fluorescently labeled IFNγ-activated U937 (CD64+) cells. On the procedure: as §1, §2

T1 sequence (P12314 16-374 limits assumed): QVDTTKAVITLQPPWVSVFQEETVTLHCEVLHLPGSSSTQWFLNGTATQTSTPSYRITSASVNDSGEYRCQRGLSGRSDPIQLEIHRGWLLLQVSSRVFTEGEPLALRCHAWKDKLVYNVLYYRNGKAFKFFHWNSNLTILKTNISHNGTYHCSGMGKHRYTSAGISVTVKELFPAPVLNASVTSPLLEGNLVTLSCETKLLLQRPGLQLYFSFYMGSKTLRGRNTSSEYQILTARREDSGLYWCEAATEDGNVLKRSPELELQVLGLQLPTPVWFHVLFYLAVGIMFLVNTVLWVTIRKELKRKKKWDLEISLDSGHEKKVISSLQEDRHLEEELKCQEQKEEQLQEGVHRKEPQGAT
T2 sequence (P02745 23-245 limits assumed, chain 1 of 3): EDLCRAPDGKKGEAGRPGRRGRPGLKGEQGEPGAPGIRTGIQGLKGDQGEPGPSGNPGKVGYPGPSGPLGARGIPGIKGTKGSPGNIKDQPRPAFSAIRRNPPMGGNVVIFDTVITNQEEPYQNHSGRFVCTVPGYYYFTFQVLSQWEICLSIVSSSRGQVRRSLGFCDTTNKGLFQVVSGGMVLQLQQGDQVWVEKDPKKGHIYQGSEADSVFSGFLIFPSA
T2 sequence (P02746 28-253 limits assumed, chain 2 of 3): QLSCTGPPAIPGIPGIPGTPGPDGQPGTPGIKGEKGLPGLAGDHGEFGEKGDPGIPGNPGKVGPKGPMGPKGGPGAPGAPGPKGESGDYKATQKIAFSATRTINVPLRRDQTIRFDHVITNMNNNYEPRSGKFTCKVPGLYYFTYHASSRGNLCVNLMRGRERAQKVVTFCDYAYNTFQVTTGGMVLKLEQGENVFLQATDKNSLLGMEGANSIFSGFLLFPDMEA
T2 sequence (P02747 29-245 limits assumed, chain 3 of 3): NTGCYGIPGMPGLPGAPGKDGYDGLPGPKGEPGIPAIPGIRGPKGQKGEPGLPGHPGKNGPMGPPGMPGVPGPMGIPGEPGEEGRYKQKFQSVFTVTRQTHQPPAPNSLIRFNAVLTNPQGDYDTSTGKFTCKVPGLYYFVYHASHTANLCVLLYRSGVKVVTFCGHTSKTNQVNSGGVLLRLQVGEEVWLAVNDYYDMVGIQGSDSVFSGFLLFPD

B1: hu5c8 IgG4 variant (S228P/T299A), aglycosylated (antibody)
heavy: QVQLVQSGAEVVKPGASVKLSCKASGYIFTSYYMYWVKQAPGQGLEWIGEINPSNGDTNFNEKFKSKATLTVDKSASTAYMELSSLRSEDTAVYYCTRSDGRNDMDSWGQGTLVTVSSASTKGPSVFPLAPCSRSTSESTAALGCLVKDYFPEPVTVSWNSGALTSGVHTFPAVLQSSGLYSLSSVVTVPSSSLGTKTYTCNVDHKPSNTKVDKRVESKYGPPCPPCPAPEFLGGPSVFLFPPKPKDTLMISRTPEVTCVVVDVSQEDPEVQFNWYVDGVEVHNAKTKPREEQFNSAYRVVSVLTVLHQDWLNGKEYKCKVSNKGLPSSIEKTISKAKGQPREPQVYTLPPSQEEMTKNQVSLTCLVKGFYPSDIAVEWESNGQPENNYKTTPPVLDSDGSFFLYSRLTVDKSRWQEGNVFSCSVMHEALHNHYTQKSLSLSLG
light: DIVLTQSPATLSVSPGERATISCRASQRVSSSTYSYMHWYQQKPGQPPKLLIKYASNLESGVPARFSGSGSGTDFTLTISSVEPEDFATYYCQHSWEIPPTFGGGTKLEIKRTVAAPSVFIFPPSDEQLKSGTASVVCLLNNFYPREAKVQWKVDNALQSGNSQESVTEQDSKDSTYSLSSTLTLSKADYEKHKVYACEVTHQGLSSPVTKSFNRGEC
notes: also called IgG4 T299A; aglycosyl IgG4 T299A antibody variant
Take B1: the results for the binding result in assay [1] and in assay [2] were “binds” and “no binding”, respectively.

B2: hu5c8 IgG1 (glycosylated parent anti-CD154 antibody) (antibody)
heavy: not shown
light: B1 light
notes: Expressed in EBNA 293 cells; also called hu5c8 antibody; glycosylated IgG1
With B2, the binding result in assay [3] and in assay [4] was “binds” throughout.
